Series [1] has as its target T1, Roquin-1 ROQ domain (UniProt Q4VGL6 171-326).
T1 sequence: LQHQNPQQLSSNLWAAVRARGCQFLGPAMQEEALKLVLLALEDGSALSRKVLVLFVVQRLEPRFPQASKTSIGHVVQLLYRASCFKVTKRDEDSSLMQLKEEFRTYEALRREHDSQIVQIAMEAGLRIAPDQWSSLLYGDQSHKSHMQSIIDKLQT
Nature of the series: ITC; n=0.81; ITC at room temperature, RNA titrated into 10-40 uM protein; buffer 20 mM Tris pH 7.0, 150 mM NaCl, 25 uM ZnCl2, 2 mM TCEP, 0.02% azide (stated for Znf); NMR HSQC 50 uM protein, RT, 10% D2O. The settings on record: protein: recombinant; tags: His6-thioredoxin, TEV-removable; single-stranded, no imino signals.

The target in series [2] is T2, Roquin-1 zinc finger (Znf, CCCH) (UniProt Q4VGL6 411-454).
T2 chain: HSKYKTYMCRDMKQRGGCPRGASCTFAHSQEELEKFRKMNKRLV
The series is described as follows: ITC; Zn2+; n=0.5; ITC at room temperature, RNA titrated into 10-40 uM protein; buffer 20 mM Tris pH 7.0, 150 mM NaCl, 25 uM ZnCl2, 2 mM TCEP, 0.02% azide (stated for Znf); NMR HSQC 50 uM protein, RT, 10% D2O. The conditions noted are these: protein: recombinant; tags: His6-GST removed by TEV; chain copies: 2; single-stranded, no imino signals. Background: Isothermal titration calorimetry measures the heat released or taken up as one component is titrated into another.

For series [3], the target named is T2, Roquin-1 zinc finger (Znf, CCCH). The series is described as follows: ITC; Zn2+; ITC at room temperature, RNA titrated into 10-40 uM protein; buffer 20 mM Tris pH 7.0, 150 mM NaCl, 25 uM ZnCl2, 2 mM TCEP, 0.02% azide (stated for Znf); NMR HSQC 50 uM protein, RT, 10% D2O. The conditions noted are these: protein: recombinant; tags: His6-GST removed by TEV; chain copies: 2; single-stranded.

The target is the same in series [4]. The series is described as follows: ITC; Zn2+; n=0.45; ITC at room temperature, RNA titrated into 10-40 uM protein; buffer 20 mM Tris pH 7.0, 150 mM NaCl, 25 uM ZnCl2, 2 mM TCEP, 0.02% azide (stated for Znf); NMR HSQC 50 uM protein, RT, 10% D2O. The conditions noted are these: protein: recombinant; tags: His6-GST removed by TEV; chain copies: 2; single-stranded.

Series [5] concerns the target T1, Roquin-1 ROQ domain. The series is described as follows: ITC; complete loss of binding; ITC at room temperature, RNA titrated into 10-40 uM protein; buffer 20 mM Tris pH 7.0, 150 mM NaCl, 25 uM ZnCl2, 2 mM TCEP, 0.02% azide (stated for Znf); NMR HSQC 50 uM protein, RT, 10% D2O. The settings on record: protein: recombinant; tags: His6-thioredoxin, TEV-removable; single-stranded.

Series [6] deals with T2, Roquin-1 zinc finger (Znf, CCCH). Nature of the series: ITC; Zn2+; n=0.48; ITC at room temperature, RNA titrated into 10-40 uM protein; buffer 20 mM Tris pH 7.0, 150 mM NaCl, 25 uM ZnCl2, 2 mM TCEP, 0.02% azide (stated for Znf); NMR HSQC 50 uM protein, RT, 10% D2O. The conditions noted are these: protein: recombinant; tags: His6-GST removed by TEV; chain copies: 2; single-stranded.

Series [7] shares this target. Nature of the series: ITC; Zn2+; n=1.0; ITC at room temperature, RNA titrated into 10-40 uM protein; buffer 20 mM Tris pH 7.0, 150 mM NaCl, 25 uM ZnCl2, 2 mM TCEP, 0.02% azide (stated for Znf); NMR HSQC 50 uM protein, RT, 10% D2O. The conditions noted are these: protein: recombinant; tags: His6-GST removed by TEV; chain copies: 2; single-stranded.

As for UUUUAACAUUAUUUU (ssRNA) [LBE (Nfkbiz 3'-UTR 15-mer)], the equilibrium dissociation constant (Kd) (usually the constant that tells how readily two partners part at equilibrium) came to 3.6 ± 0.4 µM with Roquin-1 ROQ domain [1] and 26.3 ± 3.4 µM in series [2].

With CACACACACA (ssRNA) [(CA)5 10-mer], the binding result in series [3] is on record as “no binding”.

As to GUGUGUGUGU (ssRNA) [(GU)5 10-mer], the dissociation constant (Kd) in series [4] is 52.5 ± 7.2 µM.

As for UUUUAAGCGUAUUUU (ssRNA) [LBE mutant (GCG)], the binding result with Roquin-1 ROQ domain [5] is reported as “no binding”. Also, the Kd in series [6] is 21.4 ± 3.6 µM.

Regarding UUUUAACAU (ssRNA) [LBE 5'-half 9-mer], the dissociation constant Kd in series [7] was 35.6 ± 6.8 µM.

These data come from publication PMC6145892, “Roquin targets mRNAs in a 3′-UTR-specific manner by different modes of regulation”.
